Residue numbers refer to the chain shown, from its start. Values belong to the binder of their own block, whether it stands above or below them.
How the values were obtained:
GST-NUB1L, Q9Y5A7-1 = target: T1, GST-NUB1L, Q9Y5A7-1; test: Octet (BLI); settings: chain shown with the change; GST-NUB1L on the sensor; His6-RPN1 variant in solution; parent: est. 0.58; read off a plot
T1 chain: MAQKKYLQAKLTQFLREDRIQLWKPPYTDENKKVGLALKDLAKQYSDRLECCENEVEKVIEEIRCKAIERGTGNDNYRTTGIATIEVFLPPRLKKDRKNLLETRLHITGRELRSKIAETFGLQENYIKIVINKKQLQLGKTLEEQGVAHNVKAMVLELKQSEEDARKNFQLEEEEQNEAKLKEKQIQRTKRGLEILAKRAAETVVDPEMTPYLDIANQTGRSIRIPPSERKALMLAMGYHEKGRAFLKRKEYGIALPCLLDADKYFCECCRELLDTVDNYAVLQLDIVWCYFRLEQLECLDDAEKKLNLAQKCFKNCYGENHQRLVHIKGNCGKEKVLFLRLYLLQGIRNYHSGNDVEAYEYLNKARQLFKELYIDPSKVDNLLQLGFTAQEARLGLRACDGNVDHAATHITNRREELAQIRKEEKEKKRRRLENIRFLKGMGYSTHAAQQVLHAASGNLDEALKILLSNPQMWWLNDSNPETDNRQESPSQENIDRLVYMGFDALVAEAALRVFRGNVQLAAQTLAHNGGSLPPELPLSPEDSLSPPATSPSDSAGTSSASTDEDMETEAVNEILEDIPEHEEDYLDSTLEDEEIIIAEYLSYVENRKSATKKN

GST-RAD23, P54727 = target: T2, GST-RAD23, P54727; test: Octet (BLI); settings: chain shown with the change; GST-RAD23 on the sensor; GST control curve in the same panel reaches est. 0.13 nm; read off a plot
T2 chain: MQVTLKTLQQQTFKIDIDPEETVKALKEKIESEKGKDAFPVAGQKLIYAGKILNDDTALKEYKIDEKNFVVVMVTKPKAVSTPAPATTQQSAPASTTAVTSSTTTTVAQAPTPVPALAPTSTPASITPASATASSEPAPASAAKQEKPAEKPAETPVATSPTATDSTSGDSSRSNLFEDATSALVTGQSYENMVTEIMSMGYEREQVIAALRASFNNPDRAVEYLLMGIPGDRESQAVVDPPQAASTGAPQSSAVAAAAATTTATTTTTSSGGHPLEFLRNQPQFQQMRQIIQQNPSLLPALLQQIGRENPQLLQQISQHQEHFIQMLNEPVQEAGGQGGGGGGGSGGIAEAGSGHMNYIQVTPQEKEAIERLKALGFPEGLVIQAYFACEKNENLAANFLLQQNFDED

response (GST-NUB1L, Q9Y5A7-1): 0.28 nm | response (GST-RAD23, P54727): 0.25 nm
B1: His6-RPN1 WT, Q13200 T2 (protein)
chain: MEEGGRDKAPVQPQQSPAAAPGGTDEKPSGKERRDAGDKDKEQELSEEDKQLQDELEMLVERLGEKDTSLYRPALEELRRQIRSSTTSMTSVPKPLKFLRPHYGKLKEIYENMAPGENKRFAADIISVLAMTMSGERECLKYRLVGSQEELASWGHEYVRHLAGEVAKEWQELDDAEKVQREPLLTLVKEIVPYNMAHNAEHEACDLLMEIEQVDMLEKDIDENAYAKVCLYLTSCVNYVPEPENSALLRCALGVFRKFSRFPEALRLALMLNDMELVEDIFTSCKDVVVQKQMAFMLGRHGVFLELSEDVEEYEDLTEIMSNVQLNSNFLALARELDIMEPKVPDDIYKTHLENNRFGGSGSQVDSARMNLASSFVNGFVNAAFGQDKLLTDDGNKWLYKNKDHGMLSAAASLGMILLWDAKGGLAAIDKYLYSSEDYIKSGALLACGIVNSGVRNECDPALALLSDYVLHNSNTMRLGSIFGLGLAYAGSNREDVLTLLLPVMGDSKSSMEVAGVTALACGMIAVGSCNGDVTSTILQTIMEKSETELKDTYARWLPLGLGLNHLGKGEAIEAILAALEVVSEPFRSFANTLVDVCAYAGSGNVLKVQQLLHICSEHFDSKEKEEDKDKKEKKDKDKKEAPADMGAHQGVAVLGIALIAMGEEIGAEMALRTFGHLLRYGEPTLRRAVPLALALISVSNPRLNILDTLSKFSHDADPEVSYNSIFAMGMVGSGTNNARLAAMLRQLAQYHAKDPNNLFMVRLAQGLTHLGKGTLTLCPYHSDRQLMSQVAVAGLLTVLVSFLDVRNIILGKSHYVLYGLVAAMQPRMLVTFDEELRPLPVSVRVGQAVDVVGQAGKPKTITGFQTHTTPVLLAHGERAELATEEFLPVTPILEGFVILRKNPNYDL

response (GST-NUB1L, Q9Y5A7-1): 0.18 nm
B2: His6-RPN1 WT, Q13200 T1; T2 (protein)
chain: B1 chain with D533A, Q540R, E544R
